From US6710165B2, “IgE-dependent histamine-releasing factor-binding peptides” (priority 2000, dated 2004)

Legend:
PC12 cells = assay: [3H]-dopamine release by HRF; assay type: cell-based
Experimental: It was examined whether or not HRF functions as the inhibitor of (Na,K)ATPase enzyme to stimulate neurotransmitters release. For this purpose, HRF was added to the culture solution of PC12 cells (Abu-Raya, et al., 1999) and then, changes in [^3H]-labeled dopamine release induced in basal and K^+-depolarized state by addition of HRF were measured. PC12 cells from passage numbers 5 to 15 were cultured in RPMI-1640 medium containing 10% horse serum, 5% fetal bovine serum, penicillin (100 U/ml) and streptomycin (100 μg/ml) with the supply of 5% CO2 at 37° C.
To measure [^3H]-dopamine release, one day prior to the experiment, the cells ([…]) were cultured in 12-well dish coated with poly-L-lysine (10 μg/ml). The fresh medium containing [^3H]-dopamine (0.5 μCi/ml) was loaded thereto and then, the cells were further cultured at 37° C. for 3 hours. They were washed 2 or 3 times with 1 ml of PBS(1×) per well. To Krebs Ringer (KR) buffer (125 mM NaCl, 5 mM KCl, 2 mM CaCl2, 10 mM HEPES, 1.2 mM MgSO4, 1.2 mM KH2PO4, 6 mM glucose, 5 mM NaHCO3), ascorbic acid (0.2 mg/ml), pargyline (0.6 mg/ml) and despiramine (2 μM) were added. Each 1 ml of the mixture was loaded with HRF and the reaction was proceeded at 37° C. for 20 minutes. The release in the depolarization state was measured in KR buffer containing 50 mM KCl, and in Ca^2+-free medium, was measured in KR buffer prepared by removal of CaCl2 with the addition of 0.5 mM EGTA.
Upon completion of the reaction, the radioactivity of the released dopamine was measured after centrifuging the culture solution at 4° C., 1,000×g for 10 minutes. The cells were solubilized with 0.5 N NaOH and then, the radioactivity within the tissue was measured. The release rate (%) of dopamine was calculated by [radioactivity of the supernatant/(radioactivity of the supernatant+radioactivity within the tissue)×100].
As compared with the increase in basal release, the increase in K^+-stimulated release was shifted to left, but the extent thereof was relatively small.

[1] = system: (Na,K)ATPase large cytoplasmic loop; assay: Coimmunoprecipitation in COS-7 cells; assay type: binding; conditions: HA-tagged HRF
Experimental: Subsequently, to examine such interaction in mammalian cells, COS-7 cells were grown in DMEM^+ culture (Dulbeccos modified Eagles medium containing 10% fetal bovine serum, 100 units/ml penicillin and 100 units/ml streptomycin). The cells were transfected with N-terminal HA-tagged HRF constructs inserted to pCDNAneo vector (Invitrogen). COS-7 cell extracts were immunoprecipitated according to the method of Florkiewicz, et al. (1998). To detect the interactive protein, rabbit polyclonal anti-(Na,K)ATPase antibodies were added thereto.

RBL-2H3 cells [2] = assay: Histamine release by HRF (RIA); assay type: cell-based; conditions: IgE-sensitized RBL-2H3 cells, 20 μg/ml recombinant HRF
Experimental: The full-length rat HRF sequence amplified by PCR was cloned in pRSET-A vector and then, overexpressed in E. coli. The expressed recombinant protein was purified using His-bound Ni column (Novagen) and used for stimulation of RBL-2H3 cells. RBL-2H3 cells were grown in 24-well plate at 1×10^6 cells, sensitized with rat IgE antibody (0.2 μg/ml, Serotec) for 45˜60 minutes and treated with 20 μg/ml of the recombinant HRF protein and the inhibitors as used above, respectively. The obtained sample was prepared to acylated histamine using RIA-analysis kit (Immunotech, France) and competitively bound to ^125I-acylated histamine and monoclonal antibodies. The sample was analyzed by γ-counter.

COS-7 cells = assay: HRF's capability of transiting cell membrane (confocal microscopy, Western blotting); assay type: cell-based; conditions: recombinant rat HRF added to COS-7 cell culture solution
Experimental: The full-length rat HRF sequence (Chitpatima, et al., 1988) amplified by PCR (polymerase chain reaction) was cloned in pRSET-A vector and then, overexpressed in E. coli. The expressed recombinant protein was purified by His-bound Ni column (Novagen) and then, added to COS-7 cell culture solution. COS-7 cells were immobilized with 3.7% formaldehyde containing Ca^2+ and Mg^2+ for 10 minutes. Then, the cells were stained with anti-His monoclonal antibodies (1:100) containing 0.1% saponin at room temperature for 1 hour. Subsequently, they were incubated with anti-mouse-FITC (1:100) secondary antibodies for 30 minutes. Anti-bleaching agent solution was added thereto and then, observation was made under laser confocal microscope (Leica TCSNT system).
Further, COS-7 cells cultivated in 100 mm culture plate were treated according to the above method. Then, the cells were divided into cytoplasmic fraction and cell membrane fraction. They were loaded onto 10% SDS-PAGE gel and then, Western blotting was carried out using anti-His monoclonal antibodies.
As shown in the figures, HRF was detected within the cells at 1 minute after its addition.

RBL-2H3 cells [3] = assay: Intracellular Na+ concentration (sodium green fluorescence); assay type: cell-based; conditions: IgE-sensitized RBL-2H3 cells, HRF 10˜20 μg/ml
Experimental: RBL-2H3 cells were loaded onto 24-well plate at 3.0×10^5˜1×10^6 cells/ml and cultivated at 37° for 18 hours. Hams F-12 culture (phenol red or serum-free 2 mM sodium bicarbonate and 10 mM HEPES, pH 7.3) was mixed with sodium green tetracetate dye (Molecular Probes, Eugene, Oreg.) at a final concentration of […] and the mixture was loaded onto the cells (Amorino and Fox, 1995). The cells were sensitized with 0.2 μg/ml of rat IgE (Serotec) for 45˜60 minutes and then, cultivated at room temperature for about 20˜60 minutes and washed three times with F-12 medium. Subsequently, thereto was added HRF (10˜20 μg/ml) in histamine releasing buffer and then, fluorescence was measured with microtiter reader (FL600, Bio-tek Instruments, Inc., Winooski, Vt.) at 485/530 nm for 15 minutes. The mixed solution of Na^+ and K^+ at an appropriate concentration was measured using gramicidin D (Sigma) as calibration (Amorino and Fox, 1995).

B1: HRF: recombinant full-length rat HRF overexpressed in E. coli; protein consisting of 172 amino acids (protein)
chain: MIIYRDLISHDELFSDIYKIREIADGLCLEVEGKMVSRTEGAIDDSLIGGNASAEGPEGEGTESTVVTGVDIVMNHHLQETSFTKEAYKKYIKDYMKSLKGKLEEQKPERVKPFMTGAAEQIKHILANFNNYQFFIGENMNPDGMVALLDYREDGVTPFMIFFKDGLEMEKC
modifications: left off: small tags and cut ends
notes: recombinant full-length rat HRF overexpressed in E. coli; protein consisting of 172 amino acids
- HRF concentration at which dopamine release was steeply increased and the cells detached and reached to death (PC12 cells): ≥ 30 µg
- K+-stimulated dopamine release in depolarization (PC12 cells; 50 mM KCl): dose-dependently increased K^+-stimulated dopamine release
- basal release of dopamine (PC12 cells; basal state): dose-dependently increased the basal release of dopamine
- dopamine release at HRF 10 μg (PC12 cells; basal, HRF 10 μg): increased to the extent similar to the K^+-stimulated release in depolarization
- interaction with (Na,K)ATPase large cytoplasmic loop, coimmunoprecipitation [1]: interacted with (Na,K)ATPase large cytoplasmic loop
- histamine release (RBL-2H3 cells [2]): histamine was released by HRF
- time after addition at which HRF was detected within the cells (COS-7 cells): 1 min
- effect on intracellular Na+ concentration (RBL-2H3 cells [3]): increased the intracellular Na^+ concentration
